According to the DeepSol protein solubility set:

Assay: soluble on expression in E. coli; label from the status in PepcDB or PDB records

Sequence	soluble on expression in E. coli
KIYSGRILIPLQHILKELKRIRANSLNRRLKTTGNNDELEDMIETLNSMLDRLDSAFKAEKSFVSHASHELNNPITAIQGECEISLLKERSTGEYIEALQRISSESKRISNLIRHLLFLSRQDEELIKSNMEAMSLPDMLNDLIKMNERIRLHYQETGKAAT	not soluble
KKDFTWNATVNFSSNQSKVLSLGAETQMLEGRPVGSASGSENVLIKKGYPLGLFYGLQMEGIRSNWHSDYNGIGSADSPWWYATEREMPYGFPSFADTNGDGKVDMSDRVVIGDVNPVFIGGLNTRLRWKFIELAMDFSWSYGNDIINGNVYNLMNNGDIRNKSAVYYKDAWFANNPTGTFTGPGAIDWSGYMWAASNSEMVEDGSFLKMNNLAVTFRMPKNILKAWKIKDLALTYTINNVFCLTNYSGYDPEVRSGSSVNNRILPGVDISAYPYARSHIFSLNFKY	not soluble
KKISQYACQRRTTLNNYNQLFTDALDILAENDELRENEGSCLAFMRASSVLKSLPFPITSMKDTEGIPCLGDKVKSIIEGIIEDGESSEAKAVLNDERYKSFKLFTSVFGVGLKTAEKWFRMGFRTLSKIQSDKSLRFTQMQKAGFLYYEDLVSCVNRPEAEAVSMLVKEAVVTFLPDALVTMTGGFRRGKMTGHDVDFLITSPEATEDEEQQLLHKVTDFWKQQGLLLYCDILESTFEKFKQPSRKVDALDHFQKCFLILKLDHGRVHSEKSGQQEGKGWKAIRVDLVMCPYDRRAFALLGWTGSRQFERDLRRYATHERKMMLDNHALYDRTKRVFLEAESEEEIFAHLGLDYIEPWERNA	soluble
KLKIVEVPQEELFRDDDLLKSVYGILVTAHYRNSPDDLMLLGDMAFQKVIVGYSSENPVAVCQVVYEGGLTDKQIWDISNGLKNEGHLIPHRLIKYMRALDFGKLKGWRIMRIAVSPENQGKGIGSRVIEEVIKMAKGVDWIGSSFVADYSVLRFWIKNGFLPVYLSSIKNEE	not soluble
KNAELSIKLNKEEYQANEDIEIQITAPYTGSGLITIERDKVYAVHWFKTEAQNSVQTIRIPADFQGNGYVNVAFIRDWESPELFISPLSYSVAPFNVNHDKHDIKIGLKTPELARPGESFTIDYHTDKPGKIIVFAVDEGILQVANY	not soluble
KRKEMISARLGDGLSYLYMASATLKKYEDEGRQQGDLNFVHYAVQYCLYNAAKSLNEAYANFPVKYVGGVLKGLLFPLGNHFDKPSDELSVSIAEAMMTPGVQRDRLTHLCYIGKSENDSVGLMENAFLAMYDVKPLERKLMKAAKDGKVARKGLLPDRLQQALDAGVLTEQEVEKITAADQLRYKAIQVDHFSHDFSEVRTDSPKKSHLNPAA	not soluble
KSIHDAGQRVQIYFSDAAGLVAGRTTIRYQGLEVGMVRDINLSEDLGSIYVDADIYPEATKLLNDKTRFWLVKPTASLTGVSGLDALVSGNYISIQPGDGQEFETTFHALDSAPTDLRVSQGLNIKLKSRDLGGVSIGSQIVYKKIPIGAVYSYQLDEDAKSITIQANIQEQYRHIINDRSRFWNVSGIGASIGFEGVDVRLESMSALLGGAIAVDSPDDGEPVEENTEFRLYKDLKTAGRGIAIKIALPDDNKVSSEGAPIMYRGIEIGQVTDLSLSEGREVILASAAIQPAFSDMLTTGTRFVLEEAKVSLSGVENIANLVRGNFLTIVPGDGERSRRFTAIRKNVFNQQQEKSIAIRLISDNSFGLDSGAN	not soluble
KYRSVFDIIGPVMIGPSSSHTAGAARIGRVARSLFGREPERIIVSFYGSFAETYKGHGTDVAIIGGLLDFDTFDERIKTAIQIAEAKGIDIEFRVEDAVPVHPNTAKITISDEKGELELTGISIGGGKIEITELNGFELRLSGNHPAILVVHNDKFGTIAGVANVLAKFSINVGHMEVARKDIGQLALMTIEVDQNIDDHILDELSKLPN	not soluble
LAGIAGVDRDPPGWPQHSHLLAGDPERFRHQLQRAETTNSIECFVAEWHHAGVAADMTRPWPTVVQGGAGQRRRRDVEPDRKTPVRWMSGQRLSEITWPTTDIEHSVGAAEVQRHRGAVPLGSGGDAAGKVEGGRTPQPFVQP	not soluble
LALHKVIMVGSGGVGKSALTLQFMYDEFVEDYEPTKADSYRKKVVLDGEEVQIDILDTAGLEDYAAIRDNYFRSGEGFLLVFSITEHESFTATAEFREQILRVKAEEDKIPLLVVGNKSDLEERRQVPVEEARSKAEEWGVQYVETSAKTRANVDKVFFDLMREIRTKKMSENK	soluble
LALYRCAADVQAALDYYFDSETEREDTLEAVIGQFEVKAQSVIAYIKNQEITEKMLEGHIRRMTGKLKAVKAQNQSLKDYLARNMQAAGITEIKADDGTFKASFRKSEAVVILDEAQIPAEFMREAVKTEPDKTAIRKAIESGRQVAGAKIEGRKNLQIR	not soluble
LDEYQVSQDRLVESEERYRQLVESAPDAVLIHCDGRYVFANPAALRLYGADTADQLLGREITDFVHPNSRQVVAERIKLLYQERSPAPLCEQQIVRLDGTVVDVEVVGIPYSHQGRPAVQAVLREIT	not soluble
LEIPTSTVVKETLTQLSAHRALLTSNETLRLPVPTHKNHQLCIGEIFQGLDILKNQTVRGGTVERLFQNLSLIKKYIDRQKEKCGEERRRTRQFLDYLQEFLGVLSTEWAIEG	soluble
LESLEVMIMLDTLRAINNPLNDYALVALLRSPMFNFNEDDLTRIAVQADKGQFYDKLLAAHTKSGLHPEVVMQGLEAKLTLFTETLADWRDYSKCHSIYDLIWKIYNDRFYYDYVGGLPRAEQRQANLYALALRANAYEKTGFKGLSRFIGMI	not soluble
LETSWIKPGQASWEWWNDAAPYGPDVNFVSGYNLETYKYYIDFASKYGIRYIIMDEGWAKSTRDPYTPNAKVDVHELIRYAEKKNVGIVLWLTWLTVENNMDLFKTFSEWGVKGVKIDFMDRSDQWMMNFYERVAAEAAKYKLFVDFHGSVSPKGLEYKYPNVLSYEGVRGMEQMGGATPDNSIFMPFMRNAVGAMD	not soluble
LGEALNIYTPHRIVAFDNSNIQGTNPVSAMIVFIDGKPYKKEYRKYKIKTVTGPDDYGSMREVVRRRYTRVLRENLPLPDLIIIDGGKGQINAARDVIENELGLDIPIAGLAKDEKHRTSNLLIGDPLEVAYLERNSQEFYLLQRIQDEVHRFAI	not soluble
LGTQMGIQTPIRIEAFDNSNIQGVDPVSAMVTFVDGKPDKKNYRKYKIKTVKGPDDYKSMREVVRRRYSRVLNEGLPLPDLIIVDGGKGHMNGVIDVLQNELGLDIPVAGLQKNDKHQTSELLYGASAEIVPLKKNSQAFYLLHRIQDEVHRFAI	not soluble
LHPEPQSQHELGNVFLKFKDKFCVYEEYCSNHEKALRLLVELNKIPTVRAFLLSCMLLGGRKTTDIPLEGYLLSPIQRICKYPLLLKELAKRTPGKHPDHPAVQSALQAMKTVCSNINETKRQMEKLEALEQLQSHIEGWEGSNLTDICTQLLLQGTLLKISAGNIQERAFFLFDNLLVYCKRKSRVTGSKKSTKRTKSINGSLYIFRGRINTEVMEVENVEDGTADYHSNGYTVTNGWKIHNTAKNKWFVCMAKTAEEKQKWLDAIIREREQRESLKLGMERDAYVMIAEKGEKLYHMMMNKKVNLIKDRRRKLSTVPKCFLGNEFVAWLLEIGEISKTEEGVNLGQALLENGIIHHVSDKHQFKNEQVMYRFRYDDGTYKARSELEDIMSKGVRLYCRLHSLYTPVIKDRDYHLKTYKSVLPGSKLVDWLLAQGDCQTREEAVALGVGLCNNGFMHHVLEKSEFRDESQYFRFHADEEMEGTSSKNKQLRNDFKLVENILAKRLLILPQEEDYGFDIEEKNKAVVVKSVQRGSLAEVAGLQVGRKIYSINEDLVFLRPFSEVESILNQSFCSRRPLRLLVATKAKEIIKIPDQPDTLCFQIRGAAPPYVYAVGRGSEAMAAGLCAGQCILKVNGSNVMNDGAPEVLEHFQAFRSRREEALGLYQWIYHTHEDAQEARASQEASTEDPSGEQAQEEDQADSAFPLLSLGPRLSLCEDSPMVTLTVDNVHLEHGVVYEYVSTAGVRCHVLEKIVEPRGCFGLTAKILEAFAANDSVFVENCRRLMALSSAIVTMPHFEFRNICDTKLESIGQRIACYQEFAAQLKSRVSPPFKQAPLEPHPLCGLDFCPTNCHINLMEVSYPKTTPSVGRSFSIRFGRKPSLIGLDPEQGHLNPMSYTQHCITTMAAPSWKCLPAAEGDPQGQGLHDGSFGPASGTLGQEDRGLSFLLKQEDREIQDAYLQLFTKLDVALKEMKQYVTQINRLLSTITEPTSGGSCDTSLAEEASSLPLVSEESEMDRSDHGGIKKVCFKVAEEDQEDSGHDTMSYRDSYSECNSNRDSVLSYTSVRSNSSYLGSDEMGSGDELPCDMRIPSDKQDKLHGCLEHLFNQVDSINALLKGPVMSRAFEETKHFPMNHSLQAIHPFTHSATHAPINPSVHPPLHPTTHLPSIHPPTHPPTHPSIYPPTHPSIHLLVCPSIHPSLLPSVCPLFHPSTHSFIIYLSIHASVHPVNNFPEPACARPCTGHWRP	soluble
LIFTCDKNKLQESIAIAQKAITGKSTMPILEGLYIEASENIVTIIGSDKDVSIETKFEADVTEPGKLVVDAKIFGEIIRKLPNDKIKIETVSEEAIRITCQKSVFDLLHMNAEDFPSLPKINENMIFSINQGILKNMIKGTSFAIAQDETRPILQGILFEIKDSKLNLVALDGYRLAIRTENIDTNNTINAVIPGKTLNEVAKILEDSEEIVNITFTPNHILFNMGDTKVISRLLEGEFIKYDALLPKEHKLQIEVDKQTLQNGIERASLMAKEGNSNLVKFDITDENIVITSNSQLGKVREEVTIKLQGDEIQIAFNSKYLLDVLKNMEEDKIELRMTSSISPCIIRNKNNDLCEYLVLPVRIAR	soluble
LKEDKEKYPIFVFIHKDKVTISIDTTGDALHKRGYREKANKAPIRETLAAGLIYLTPWKAGRVLVDPMCGSGTILIEAAMIGINMAPGLNREFISEKWRTLDKKIWWDVRKDAFNKIDNESKFKIYGYDIDEESIDIARENAEIAGVDEYIEFNVGDATQFKSEDEFGFIITNPPYGERLEDKDSVKQLYKELGYAFRKLKNWSYYLITSYEDFEYEFGQKADKKRKLYNGMLKTNFFQYPGPKPPRNNK	not soluble
LKFPKVAVVGSRACSKQGAKSVEKVIQGLENELVIVSGLAKGIDTAAHMAALQNGGKTIAVIGTGLDVFYPKANKRLQDYIGNDHLVLSEYGPGEQPLKFHFPARNRIIAGLCRGVIVAEAKMRSGSLITCERAMEEGRDVFAIPGSILDGLSDGCHHLIQEGAKLVTSGQDVLAEFEF	not soluble
LLTAAYAAKEHLIMTTPYFVPSDDLLHAICTAAQRGVDVSIILPRKNDSLLVGWASRAFFTELLAAGVKIYQFEGGLLHTKSVLVDGELSLVGTVNLDMRSLWLNFEITLVIDDAGFGSDLAAVQDDYISRSRLLDARLWLKRPLWQRIAERLFYFFSPLL	not soluble
LMGDDKVKKEVGRASWKYFHTLLARFPDEPTPEEREKLHTFIGLYAELYPCGECSYHFVKLIEKYPVQTSSRTAAAMWGCHIHNKVNEYLKKDIYDCATILEDYDCGCSDSDGKRVS	soluble
LNSVGQGEFGGAPFKRFLRGTRIVSGGKLKRMTREKAKQVTVAGVPMPRDAEPRHLLVNGATGTGKSVLLRELAYTGLLRGDRMVIVDPNGDMLSKFGRDKDIILNPYDQRTKGWSFFNEIRNDYDWQRYALSVVPRGKTDEAEEWASYGRLLLRETAKKLALIGTPSMRELFHWTTIATFDDLRGFLEGTLAESLFAGSNEASKALTSARFVLSDKLPEHVTMPDGDFSIRSWLEDPNGGNLFITWREDMGPALRPLISAWVDVVCTSILSLPEEPKRRLWLFIDELASLEKLASLADALTKGRKAGLRVVAGLQSTSQLDDVYGVKEAQTLRASFRSLVVLGGSRTDPKTNEDMSLSLGEHEVERDRYSKNTGKHHSTGRALERVRERVVMPAEIANLPDLTAYVGFAGNRPIAKVPLEIKQFANRQPAFVEGTI	soluble
